{"source": "the supplement of paper PMC10567573", "assay": "protein stability index of a GFP-peptide fusion (GPS, HEK-293T) (PSI 1-6); higher = more stable"}
{"protein": "RPDTGDDAAGHGFCYCAGSHKRKR", "values": [{"measurement": "protein stability index", "setting": "parent: IOH5876_6, c terminus: a fixed tail appended", "value": 2.92}]}
{"protein": "FCYCAGSHKRKRSSGSFCYCHPDS", "values": [{"measurement": "protein stability index", "setting": "parent: IOH5876_8, c terminus: a fixed tail appended", "value": 1.91}]}
{"protein": "CKACITRWWEDLERDFPCPVCRKT", "values": [{"measurement": "protein stability index", "setting": "parent: IOH5913_9, c terminus: a fixed tail appended", "value": 3.85}]}
{"protein": "ERDFPCPVCRKTSRYRSLRPNRQL", "values": [{"measurement": "protein stability index", "setting": "parent: IOH5913_11, c terminus: a fixed tail appended", "value": 2.25}]}
{"protein": "YPCVLATEGFTSGRHYWEVEVGDK", "values": [{"measurement": "protein stability index", "setting": "parent: IOH5913_59, c terminus: a fixed tail appended", "value": 1.8}]}
{"protein": "MASSSTVPLGFHYETKYVVLSYLG", "values": [{"measurement": "protein stability index", "setting": "parent: IOH5956_1, c terminus: a fixed tail appended", "value": 2.43}]}
{"protein": "QSLDQEILLKVKTEIEEELKSLDK", "values": [{"measurement": "protein stability index", "setting": "parent: IOH5956_9, c terminus: a fixed tail appended", "value": 4.89}]}
{"protein": "YIIQQGGWGTVFSLESEEEEYPGI", "values": [{"measurement": "protein stability index", "setting": "parent: IOH5956_33, c terminus: a fixed tail appended", "value": 1.93}]}
{"protein": "REESLPNLLQYVRMPLLTPRYITD", "values": [{"measurement": "protein stability index", "setting": "parent: IOH6063_36, c terminus: a fixed tail appended", "value": 2.48}]}
{"protein": "LDYTADEDGVWYSVAPMNVRRGLA", "values": [{"measurement": "protein stability index", "setting": "parent: IOH6063_59, c terminus: a fixed tail appended", "value": 1.98}]}
{"protein": "SMTTPRCYVGATVLRGRLYAIAGY", "values": [{"measurement": "protein stability index", "setting": "parent: IOH6063_85, c terminus: a fixed tail appended", "value": 2.41}]}
{"protein": "PEASHLRFRRFRFQEAAGPREALS", "values": [{"measurement": "protein stability index", "setting": "parent: IOH6312_7, c terminus: a fixed tail appended", "value": 2.65}]}
{"protein": "VPGTQVGQGGKLWDPSVQSCKEGL", "values": [{"measurement": "protein stability index", "setting": "parent: IOH6312_45, c terminus: a fixed tail appended", "value": 4.2}]}
{"protein": "QPKKLHLCPLCGKNFSNNSNLIRH", "values": [{"measurement": "protein stability index", "setting": "parent: IOH6312_63, c terminus: a fixed tail appended", "value": 2.55}]}
{"protein": "FGGNPRFLSLHRAHLGEEAHKCLE", "values": [{"measurement": "protein stability index", "setting": "parent: IOH6312_70, c terminus: a fixed tail appended", "value": 1.85}]}
{"protein": "QRTHTGEKPYKCPECGEIFAHSSN", "values": [{"measurement": "protein stability index", "setting": "parent: IOH6312_81, c terminus: a fixed tail appended", "value": 3.1}]}
{"protein": "EKPYKCPECGEIFAHSSNLLRHQR", "values": [{"measurement": "protein stability index", "setting": "parent: IOH6312_82, c terminus: a fixed tail appended", "value": 2.43}]}
{"protein": "FAHSSNLLRHQRIHTGERPYKCPE", "values": [{"measurement": "protein stability index", "setting": "parent: IOH6312_84, c terminus: a fixed tail appended", "value": 2.34}]}
{"protein": "LLRHQRIHTGERPYKCPECGKSFS", "values": [{"measurement": "protein stability index", "setting": "parent: IOH6312_85, c terminus: a fixed tail appended", "value": 2.03}]}
{"protein": "HLTRHQRTHTGEKPYKCTLCGENF", "values": [{"measurement": "protein stability index", "setting": "parent: IOH6312_99, c terminus: a fixed tail appended", "value": 2.9}]}
{"protein": "RTHTGEKPYKCTLCGENFSHRSNL", "values": [{"measurement": "protein stability index", "setting": "parent: IOH6312_100, c terminus: a fixed tail appended", "value": 2.17}]}
{"protein": "KPYKCTLCGENFSHRSNLIRHQRI", "values": [{"measurement": "protein stability index", "setting": "parent: IOH6312_101, c terminus: a fixed tail appended", "value": 2.32}]}
{"protein": "CSECGESFSRSSRLMSHQRTHTG", "values": [{"measurement": "protein stability index", "setting": "parent: IOH6312_114, c terminus: native", "value": 2.98}]}
{"protein": "YNPSFEDHQTLLSAAHEVELQRQK", "values": [{"measurement": "protein stability index", "setting": "parent: IOH6410_42, c terminus: a fixed tail appended", "value": 3.61}]}
{"protein": "LARRRRRRQARREAEADKPRRLGR", "values": [{"measurement": "protein stability index", "setting": "parent: IOH6410_65, c terminus: a fixed tail appended", "value": 4.75}]}
{"protein": "FQRRNMIEPRERAKFKRKYKVKLV", "values": [{"measurement": "protein stability index", "setting": "parent: IOH6410_75, c terminus: a fixed tail appended", "value": 2.25}]}
{"protein": "FVDILESDLKDDDAVPPGMESLIS", "values": [{"measurement": "protein stability index", "setting": "parent: IOH6456_46, c terminus: a fixed tail appended", "value": 3.07}]}
{"protein": "KSPIAPCSLDKRVILIFHCEFSSE", "values": [{"measurement": "protein stability index", "setting": "parent: IOH6456_79, c terminus: a fixed tail appended", "value": 2.62}]}
{"protein": "ELKTFRLKTRSWAGERSRRELCSR", "values": [{"measurement": "protein stability index", "setting": "parent: IOH6456_93, c terminus: a fixed tail appended", "value": 3.35}]}
{"protein": "LFVTVTAVNLSVSTLPSLREEEEQ", "values": [{"measurement": "protein stability index", "setting": "parent: IOH6461_40, c terminus: a fixed tail appended", "value": 2.13}]}
{"protein": "AVNLSVSTLPSLREEEEQVRAHAP", "values": [{"measurement": "protein stability index", "setting": "parent: IOH6461_41, c terminus: a fixed tail appended", "value": 5.01}]}
{"protein": "REQADSCREQLDIMNDLSNRVWSI", "values": [{"measurement": "protein stability index", "setting": "parent: IOH6488_25, c terminus: a fixed tail appended", "value": 2.18}]}
{"protein": "YARTPTLDPDTMHARLRLSADRLT", "values": [{"measurement": "protein stability index", "setting": "parent: IOH6488_45, c terminus: a fixed tail appended", "value": 2.62}]}
{"protein": "MYKLSSEQFHEAASKMESTIKPRR", "note": "[CHCHD6 WT]", "values": [{"measurement": "protein stability index", "setting": "parent: IOH6589_29, c terminus: a fixed tail appended", "value": 3.65}]}
{"protein": "SMQCKVILLDGSEYTCDVEKRSRG", "values": [{"measurement": "protein stability index", "setting": "parent: IOH6638_19, c terminus: a fixed tail appended", "value": 2.79}]}
{"protein": "SELGDYDPDECGSDYISEFRFAPN", "values": [{"measurement": "protein stability index", "setting": "parent: IOH6638_40, c terminus: a fixed tail appended", "value": 1.93}]}
{"protein": "SDYISEFRFAPNHTKELEDKVIEL", "values": [{"measurement": "protein stability index", "setting": "parent: IOH6638_42, c terminus: a fixed tail appended", "value": 2.07}]}
{"protein": "FRFAPNHTKELEDKVIELHKSHRG", "values": [{"measurement": "protein stability index", "setting": "parent: IOH6638_43, c terminus: a fixed tail appended", "value": 2.13}]}
{"protein": "KKFLTLGSKFRYSGRTQAQTRRAS", "values": [{"measurement": "protein stability index", "setting": "parent: IOH6638_67, c terminus: a fixed tail appended", "value": 2.96}]}
{"protein": "GSKFRYSGRTQAQTRRASALIDRP", "values": [{"measurement": "protein stability index", "setting": "parent: IOH6638_68, c terminus: a fixed tail appended", "value": 3.09}]}
{"protein": "GPGFHAGTSALWRHLRSAHRRELE", "values": [{"measurement": "protein stability index", "setting": "parent: IOH6801_14, c terminus: a fixed tail appended", "value": 2.28}]}
{"protein": "QARLRDVSRREGALGWAPAAPPPL", "values": [{"measurement": "protein stability index", "setting": "parent: IOH6801_33, c terminus: a fixed tail appended", "value": 3.31}]}
{"protein": "FPNRTDQQCQYRWLRVLNPDLVKG", "values": [{"measurement": "protein stability index", "setting": "parent: IOH6886_11, c terminus: a fixed tail appended", "value": 2.01}]}
{"protein": "IAKHLKGRLGKQCRERWHNHLNPE", "values": [{"measurement": "protein stability index", "setting": "parent: IOH6886_19, c terminus: a fixed tail appended", "value": 1.82}]}
{"protein": "VKKSCWTEEEDRIICEAHKVLGNR", "values": [{"measurement": "protein stability index", "setting": "parent: IOH6886_23, c terminus: a fixed tail appended", "value": 3.18}]}
{"protein": "FSPSQFLNFWNKQDTLELESPSLT", "values": [{"measurement": "protein stability index", "setting": "parent: IOH6886_76, c terminus: a fixed tail appended", "value": 2.12}]}
{"protein": "LDMDEGTLSFIVDGQYLGVAFRGL", "note": "[SPSB4 WT]", "values": [{"measurement": "protein stability index", "setting": "parent: IOH6956_31, c terminus: a fixed tail appended", "value": 2.49}]}
{"protein": "MTKAQESLTLEDVAVDFTWEEWQF", "values": [{"measurement": "protein stability index", "setting": "parent: IOH7272_1, c terminus: a fixed tail appended", "value": 3.04}]}
{"protein": "YQAGKPDALTKLEQGEPLWTLEDE", "values": [{"measurement": "protein stability index", "setting": "parent: IOH7272_9, c terminus: a fixed tail appended", "value": 4.34}]}
{"protein": "LTEHKRIHTGKKPHVCSLCGKAFY", "values": [{"measurement": "protein stability index", "setting": "parent: IOH7272_33, c terminus: a fixed tail appended", "value": 2.52}]}
{"protein": "EHERAHRGEKPHGCSLCGKAFYKR", "values": [{"measurement": "protein stability index", "setting": "parent: IOH7272_38, c terminus: a fixed tail appended", "value": 2.1}]}
{"protein": "LVAHQRYHTGKTPFVCPECGQPCS", "values": [{"measurement": "protein stability index", "setting": "parent: IOH7272_61, c terminus: a fixed tail appended", "value": 3.29}]}
{"protein": "YHTGKTPFVCPECGQPCSQKSGLI", "values": [{"measurement": "protein stability index", "setting": "parent: IOH7272_62, c terminus: a fixed tail appended", "value": 1.66}]}
